This is an account of results in US20230190870A1, “Method for Treating Lysosomal Storage Diseases with Histatin Peptides” (THE BOARD OF TRUSTEES OF THE UNIVERSITY OF ILLINOIS, priority 2020, published 2023).

Assay [1] deals with T1, TMEM97 (S2R) containing HEK293T membranes (Homo sapiens, UniProt Q5BJF2).
T1 construct: expressed in transfected cells; host or cells: HEK293T (transient overexpression; membranes prepared by UNC PDSP)
The assay is described as follows: Radioligand binding/competition assay with [3H]-DTG (UNC PDSP). The conditions noted are these: secondary radioligand binding assay; hot ligand [3H]-DTG.

In assay [2] the test system is Human corneal epithelial cells. In words: Cell viability of BAK-treated human corneal epithelial cells. The conditions noted are these: benzalkonium chloride (BAK) treatment. It counts as cell-based. The source says:
(§1) Apoptosis. […] BAK and hOsm are standard inducers of corneal epithelial and neuronal cell death and toxicity, phenomena which are associated with ocular surface pain and chronic pain syndromes.

Assay [3] concerns human corneal epithelium. In words: Hyperosmolarity-induced apoptotic signals (Caspase 3/7). It counts as cell-based. The following applies: 450 mOsm.
Text: as §1

For assay [4], the system named is Human corneal epithelial cells. The assay is described as follows: Calcium Green-2 calcium signaling in human corneal epithelial cells. It is filed as cell-based. As to the method: Calcium Signaling. Human corneal epithelial cells were treated with Hst1 or Hst5, stained with Calcium Green-2, and relative fluorescence intensity was monitored at 1, 2 and 4 hours. […] This normalization of cellular calcium levels seen after toxicity from benzalkonium chloride treatment is analogous to toxic effects seen in chronic pain and other conditions. As such, histatin peptides may of use in the amelioration of chronic pain.

Assay [5] deals with Candida albicans. The following applies: cited from earlier work.
Assay [6] concerns the target T2, Synthetic TMEM97 (108-176) peptide.
T2 construct: Synthetic peptide; also called full C-terminal synthetic TMEM97
T2 peptide: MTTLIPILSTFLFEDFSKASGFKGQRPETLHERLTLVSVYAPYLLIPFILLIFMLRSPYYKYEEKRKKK
In words: SPR.

Assay [7] concerns the target T3, Synthetic TMEM97 (144-176) peptide.
T3 construct: Synthetic peptide; also called (predicted) cytoplasmic segment
T3 peptide: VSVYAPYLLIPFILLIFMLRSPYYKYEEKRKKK
In words: SPR.

The target of assay [8] is T4, GST-TMEM97 (108-176), recombinant from wheat germ (Abnova) (UniProt Q5BJF2 108-176).
T4 construct: not shown: GST tag
The assay is described as follows: SPR.

Assay [9] deals with T5, Synthetic TMEM97 (108-143) peptide.
T5 construct: Synthetic peptide; also called (predicted) luminal segment
T5 peptide: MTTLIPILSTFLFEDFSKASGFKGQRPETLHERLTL
The assay is described as follows: SPR.

Assay [10] addresses T6, Recombinant full-length TMEM97 (from HEK293 cells, OriGene) (UniProt Q5BJF2 1-176).
T6 construct: Bought protein, said to be full-length; Immobilized on a CM5 chip; also called MAC30
The assay is described as follows: SPR, TMEM97 immobilized on CM5 chip.

Assay [11] deals with T3, Synthetic TMEM97 (144-176) peptide. In words: ITC, Hst1 titrated into the C-terminal TMEM97 peptide (taken as 144-176).
The target is the same in assay [12]. In words: ITC, Hst1 titrated into the C-terminal TMEM97 peptide (taken as 144-176); ITC, not SPR; C-terminal fragment taken as 144-176.
The target is the same in assay [13]. In words: SPR, synthetic TMEM97 (144-176) immobilized, Hst1 as analyte; SPR; synthetic TMEM97 (144-176).
The target in assay [14] is T2, Synthetic TMEM97 (108-176) peptide. In words: ITC, Hst1 titrated into synthetic TMEM97 (108-176); ITC, not SPR; TMEM97 (108-176).
The target is the same in assay [15]. The assay is described as follows: ITC, Hst1 titrated into synthetic TMEM97 (108-176).
For assay [16], the target named is T4, GST-TMEM97 (108-176), recombinant from …. The assay is described as follows: SPR, GST-TMEM97 (108-176) immobilized on CM5 chip, Hst1 as analyte; GST-tagged wheat-germ TMEM97 (108-176); SPR.
The target in assay [17] is T2, Synthetic TMEM97 (108-176) peptide. In words: SPR, synthetic TMEM97 (108-176) immobilized, Hst1 as analyte; SPR; synthetic TMEM97 (108-176).

Square brackets hold non-standard residues; d marks the D form. Ends that are not written are not given here. pS = N[C@@H](COP(=O)(O)O)C(=O)O

T1 sequence (Q5BJF2 whole entry, species assumed): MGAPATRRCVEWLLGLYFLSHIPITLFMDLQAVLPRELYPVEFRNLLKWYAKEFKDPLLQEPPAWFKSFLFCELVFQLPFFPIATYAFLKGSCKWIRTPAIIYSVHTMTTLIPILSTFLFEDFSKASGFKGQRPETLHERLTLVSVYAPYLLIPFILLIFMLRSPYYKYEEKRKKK

In assay [1], `CC(C)C[C@H](NC(=O)[C@H](Cc1ccc(O)cc1)NC(=O)[C@H](CC(N)=O)NC(=O)[C@H](CO)NC(=O)[C@H](CCCNC(=N)N)NC(=O)[C@H](Cc1ccc(O)cc1)NC(=O)CNC(=O)[C@H](CCCNC(=N)N)NC(=O)[C@H](Cc1c[nH]cn1)NC(=O)[C@H](CO)NC(=O)[C@H](Cc1c[nH]cn1)NC(=O)[C@H](Cc1c[nH]cn1)NC(=O)[C@H](CCCCN)NC(=O)[C@H](CCC(=O)O)NC(=O)[C@H](Cc1c[nH]cn1)NC(=O)[C@H](Cc1ccccc1)NC(=O)[C@H](CCCCN)NC(=O)[C@H](CCCNC(=N)N)NC(=O)[C@H](CCCCN)NC(=O)[C@H](Cc1ccc(O)cc1)NC(=O)CNC(=O)[C@H](Cc1c[nH]cn1)NC(=O)[C@H](Cc1c[nH]cn1)NC(=O)[C@H](CCCNC(=N)N)NC(=O)[C@H](CCCCN)NC(=O)[C@H](C)NC(=O)[C@H](Cc1c[nH]cn1)NC(=O)[C@H](CO)NC(=O)[C@@H](N)CC(=O)O)C(=O)N[C@@H](Cc1ccc(O)cc1)C(=O)N[C@@H](CC(=O)O)C(=O)N[C@@H](CC(N)=O)C(=O)O` [Hst3] gave a Ki of 1.09 µM.

In turn, `C[C@H](NC(=O)[C@H](Cc1c[nH]cn1)NC(=O)[C@H](CO)NC(=O)[C@@H](N)CC(=O)O)C(=O)N[C@@H](CCCCN)C(=O)N[C@@H](CCCNC(=N)N)C(=O)N[C@@H](Cc1c[nH]cn1)C(=O)N[C@@H](Cc1c[nH]cn1)C(=O)NCC(=O)N[C@@H](Cc1ccc(O)cc1)C(=O)N[C@@H](CCCCN)C(=O)N[C@@H](CCCNC(=N)N)C(=O)N[C@@H](CCCCN)C(=O)N[C@@H](Cc1ccccc1)C(=O)N[C@@H](Cc1c[nH]cn1)C(=O)N[C@@H](CCC(=O)O)C(=O)N[C@@H](CCCCN)C(=O)N[C@@H](Cc1c[nH]cn1)C(=O)N[C@@H](Cc1c[nH]cn1)C(=O)N[C@@H](CO)C(=O)N[C@@H](Cc1c[nH]cn1)C(=O)N[C@@H](CCCNC(=N)N)C(=O)NCC(=O)N[C@@H](Cc1ccc(O)cc1)C(=O)O` [Hst5] came in with a Ki in [1] of 0.582 µM. Further, the “BAK-induced loss of cell viability” value in assay [2] is given as “abrogated”. Moreover, the “hyperosmolarity-induced apoptotic signals (Caspase 3/7)” value in assay [3] was “abrogates the effects of toxic hyperosmolarity”. The “calcium signaling (relative fluorescence intensity)” value in [4] (1, 2 and 4 hours) was “increases calcium signaling”. Also, in assay [4] (cells treated with 0.001% BAK), the “elevated calcium levels after benzalkonium chloride” value was “reduced elevated calcium levels”.

For the molecule “AKRHHGYKRKFH [Histatin P-113, histatin-derived antimicrobial peptide]”, the fungicidal activity entry in [5] was “fungicidal activity”.

B1: Hst1(1-19) (peptide)
peptide: DSHEKRHHGYRRKFHEKHH
modifications: not fully specified (residue 2); ends and bridges not checked
Take B1: the Kd in assay [6] came out at 12.7 µM; in [7] it was 8.8 µM; in assay [8], 3.6 µM.

B2: Hst1(1-26) (peptide)
peptide: DSHEKRHHGYRRKFHEKHHSHREFPF
modifications: not fully specified (residue 2); ends and bridges not checked
notes: Fragment of Hst1
On to B2, for which the binding result in assay [9] was “no binding”. In addition, the results for the Kd in assay [6], in assay [7] and in assay [8] were 1.3 µM, 1.7 µM and 2.1 µM, respectively.

B3: Hst1(1-14) (peptide)
peptide: DSHEKRHHGYRRKF
modifications: not fully specified (residue 2); ends and bridges not checked
notes: Fragment of Hst1
B3: the binding result in [9], in [6] and in assay [7] was “no binding” throughout.

B4: Hst1 scrambled peptide (Hst1SP) (peptide)
peptide: HYHKFHRYYDPGSNLYKEHNHGFHHGYKDEFRRE[pS]RDS
notes: Synthetic scrambled control of Hst1; also called scrambled peptide control version of Hst1
With B4, the binding result in assay [10] is “no binding”.

B5: Histatin 1 (Hst1) (peptide)
peptide: D[pS]HEKRHHGYRRKFHEKHHSHREFPFYGDYGSNYLYDN
notes: Synthetic linear peptide made by Fmoc solid-phase synthesis; also called Hst1(1-38); H1
Regarding B5, the values for the ΔH in assay [11] and in [15] were -3310 kJ/mol and -20.5 kJ/mol, respectively. Besides, the ΔS in [11] was -2280 cal/mol K; in assay [15] it was 11.6 cal/mol K. For the same molecule, the Kd is 0.46 µM in assay [12]; 2.7 µM in assay [13]; 0.89 µM in assay [14]; 1.6 µM in [16]; 2.4 µM in assay [6]; 2.4 µM in [7]. The Kd was 1.5 µM in assay [8] and 2.8 µM in assay [17]. The binding result in [9] was “no binding”.
